Reference: the supplement of paper PMC9233669
Fewer inactive variants are shown than the library holds.

How the values were obtained:
biotinyl-Phe-oxazolone = assay: self-aminoacylation, catalytic enhancement (BFO) (fold over background); higher = more active; k-Seq, kA / k0A0; sequences stand for … in GGGAAUGGAUCCACAUCUACGAAUUC…UUCACUGCAGACUUGACGAAGCUG
How it was run: (§1)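 Mutagenized RNA pools with a 21-nt variable region (0.43 μM) reacted with each biotinyl-aminoacyl-oxazolone at 2–1250 μM. Reactions ran in 50 μL HEPES/NaCl/KCl/MgCl2/CaCl2 buffer with 5% acetonitrile, pH 6.9–7.0, for 90 minutes at room temperature. Streptavidin-captured RNA was quantified by triplicate qPCR and Illumina sequencing, and per-sequence fraction reacted was fit to a pseudo-first-order model with 1000 bootstraps. Catalytic enhancement is median kA divided by the uncatalyzed rate, the low-activity peak of a bimodal Gaussian fit.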

biotinyl-Ile-oxazolone = assay: self-aminoacylation, catalytic enhancement (BIO) (fold over background); higher = more active; k-Seq, kA / k0A0; sequences stand for … in GGGAAUGGAUCCACAUCUACGAAUUC…UUCACUGCAGACUUGACGAAGCUG
How it was run: as §1

biotinyl-Met-oxazolone = assay: self-aminoacylation, catalytic enhancement (BMO) (fold over background); higher = more active; k-Seq, kA / k0A0; sequences stand for … in GGGAAUGGAUCCACAUCUACGAAUUC…UUCACUGCAGACUUGACGAAGCUG
How it was run: as §1

biotinyl-Val-oxazolone = assay: self-aminoacylation, catalytic enhancement (BVO) (fold over background); higher = more active; k-Seq, kA / k0A0; sequences stand for … in GGGAAUGGAUCCACAUCUACGAAUUC…UUCACUGCAGACUUGACGAAGCUG
How it was run: as §1

biotinyl-Leu-oxazolone = assay: self-aminoacylation, catalytic enhancement (BLO) (fold over background); higher = more active; k-Seq, kA / k0A0; sequences stand for … in GGGAAUGGAUCCACAUCUACGAAUUC…UUCACUGCAGACUUGACGAAGCUG
How it was run: as §1

biotinyl-Trp-oxazolone = assay: self-aminoacylation, catalytic enhancement (BWO) (fold over background); higher = more active; k-Seq, kA / k0A0; sequences stand for … in GGGAAUGGAUCCACAUCUACGAAUUC…UUCACUGCAGACUUGACGAAGCUG
How it was run: as §1

With “AAGAUUGCUAAUAGUCCCAAG [Fam3.1 aminoacylation ribozyme variant]” the self-aminoacylation (biotinyl-Phe-oxazolone) was 2.39, the self-aminoacylation (biotinyl-Ile-oxazolone) was 1.28 and the self-aminoacylation (biotinyl-Met-oxazolone) was 0.597. For the same sequence, the self-aminoacylation (biotinyl-Val-oxazolone) was 0.756, the self-aminoacylation (biotinyl-Leu-oxazolone) was 0.778 and the self-aminoacylation (biotinyl-Trp-oxazolone) was 0.756.
Sequence “AAGAUUGCUAAUAGUCGCAAA [Fam3.1 aminoacylation ribozyme variant]” has a self-aminoacylation (biotinyl-Phe-oxazolone) of 1.39, a self-aminoacylation (biotinyl-Ile-oxazolone) of 1.58 and a self-aminoacylation (biotinyl-Met-oxazolone) of 1.37. The self-aminoacylation (biotinyl-Val-oxazolone) was 1.3, the self-aminoacylation (biotinyl-Leu-oxazolone) was 1.43 and the self-aminoacylation (biotinyl-Trp-oxazolone) was 2.09.
For “AAGAUUGCUAAUAGUCGCUAG [Fam3.1 aminoacylation ribozyme variant]”, the self-aminoacylation (biotinyl-Phe-oxazolone) was 0.773, the self-aminoacylation (biotinyl-Ile-oxazolone) was 1.23 and the self-aminoacylation (biotinyl-Met-oxazolone) was 0.811. It also gave a self-aminoacylation (biotinyl-Val-oxazolone) of 1.04, a self-aminoacylation (biotinyl-Leu-oxazolone) of 0.963 and a self-aminoacylation (biotinyl-Trp-oxazolone) of 0.937.
“AAGCACCUAGGUCAUCGGGUG [Fam2.2 aminoacylation ribozyme variant]” was tested, and the self-aminoacylation (biotinyl-Phe-oxazolone) was 23.6, the self-aminoacylation (biotinyl-Ile-oxazolone) was 2.84 and the self-aminoacylation (biotinyl-Met-oxazolone) was 3.13. For the same sequence, the self-aminoacylation (biotinyl-Val-oxazolone) was 2.91, the self-aminoacylation (biotinyl-Leu-oxazolone) was 2.66 and the self-aminoacylation (biotinyl-Trp-oxazolone) was 4.45.
With “AAGCUUGCAAAUAGUCGCAAG [Fam3.1 aminoacylation ribozyme variant]” the self-aminoacylation (biotinyl-Phe-oxazolone) was 7.03, the self-aminoacylation (biotinyl-Ile-oxazolone) was 2.14 and the self-aminoacylation (biotinyl-Met-oxazolone) was 2.53. For the same sequence, the self-aminoacylation (biotinyl-Val-oxazolone) was 2.25, the self-aminoacylation (biotinyl-Leu-oxazolone) was 2.07 and the self-aminoacylation (biotinyl-Trp-oxazolone) was 2.14.
Sequence “AAGCUUGCUAAAAGUCGCAAG [Fam3.1 aminoacylation ribozyme variant]” has a self-aminoacylation (biotinyl-Phe-oxazolone) of 5.12, a self-aminoacylation (biotinyl-Ile-oxazolone) of 2.16 and a self-aminoacylation (biotinyl-Met-oxazolone) of 3.31. The self-aminoacylation (biotinyl-Val-oxazolone) was 1.79, the self-aminoacylation (biotinyl-Leu-oxazolone) was 3.1 and the self-aminoacylation (biotinyl-Trp-oxazolone) was 3.43.
Sequence “AAGCUUGCUAAGAGUCGCAAG [Fam3.1 aminoacylation ribozyme variant]” has a self-aminoacylation (biotinyl-Phe-oxazolone) of 3.44, a self-aminoacylation (biotinyl-Ile-oxazolone) of 2.51 and a self-aminoacylation (biotinyl-Met-oxazolone) of 2.23. It also gave a self-aminoacylation (biotinyl-Val-oxazolone) of 2.44, a self-aminoacylation (biotinyl-Leu-oxazolone) of 2.66 and a self-aminoacylation (biotinyl-Trp-oxazolone) of 3.08.
“AAGCUUGCUAAUAGGCGCAAG [Fam3.1 aminoacylation ribozyme variant]” gave a self-aminoacylation (biotinyl-Phe-oxazolone) of 1.46, a self-aminoacylation (biotinyl-Ile-oxazolone) of 1.38 and a self-aminoacylation (biotinyl-Met-oxazolone) of 1.12. The self-aminoacylation (biotinyl-Val-oxazolone) was 1.16, the self-aminoacylation (biotinyl-Leu-oxazolone) was 1.66 and the self-aminoacylation (biotinyl-Trp-oxazolone) was 1.2.
In the case of “AAGGUUGCUAAUAGGCGCAAG [Fam3.1 aminoacylation ribozyme variant]”, the self-aminoacylation (biotinyl-Phe-oxazolone) is reported as 1.11, the self-aminoacylation (biotinyl-Ile-oxazolone) is reported as 1.19 and the self-aminoacylation (biotinyl-Met-oxazolone) is reported as 0.729. The self-aminoacylation (biotinyl-Val-oxazolone) was 0.796, the self-aminoacylation (biotinyl-Leu-oxazolone) was 1.17 and the self-aminoacylation (biotinyl-Trp-oxazolone) was 1.17.
With “AAGGUUGCUAAUAGUCGCGAG [Fam3.1 aminoacylation ribozyme variant]” the self-aminoacylation (biotinyl-Phe-oxazolone) was 2.49, the self-aminoacylation (biotinyl-Ile-oxazolone) was 1.56 and the self-aminoacylation (biotinyl-Met-oxazolone) was 1.64. It also gave a self-aminoacylation (biotinyl-Val-oxazolone) of 1.5, a self-aminoacylation (biotinyl-Leu-oxazolone) of 0.991 and a self-aminoacylation (biotinyl-Trp-oxazolone) of 1.64.
Sequence “AAGGUUGCUAAUAGUCUCAAG [Fam3.1 aminoacylation ribozyme variant]” has a self-aminoacylation (biotinyl-Phe-oxazolone) of 2.46, a self-aminoacylation (biotinyl-Ile-oxazolone) of 1.13 and a self-aminoacylation (biotinyl-Met-oxazolone) of 1.05. It also gave a self-aminoacylation (biotinyl-Val-oxazolone) of 0.996, a self-aminoacylation (biotinyl-Leu-oxazolone) of 0.944 and a self-aminoacylation (biotinyl-Trp-oxazolone) of 1.52.
For “AAGGUUGCUAAUAUUCGCAAG [Fam3.1 aminoacylation ribozyme variant]”, the self-aminoacylation (biotinyl-Phe-oxazolone) was 1.6, the self-aminoacylation (biotinyl-Ile-oxazolone) was 1.59 and the self-aminoacylation (biotinyl-Met-oxazolone) was 1.22. It also gave a self-aminoacylation (biotinyl-Val-oxazolone) of 1.26, a self-aminoacylation (biotinyl-Leu-oxazolone) of 2.03 and a self-aminoacylation (biotinyl-Trp-oxazolone) of 1.22.
“AAGGUUGCUAAUGGUCGCAAG [Fam3.1 aminoacylation ribozyme variant]” showed a self-aminoacylation (biotinyl-Phe-oxazolone) of 1.68, a self-aminoacylation (biotinyl-Ile-oxazolone) of 1.06 and a self-aminoacylation (biotinyl-Met-oxazolone) of 0.949. The self-aminoacylation (biotinyl-Val-oxazolone) was 1, the self-aminoacylation (biotinyl-Leu-oxazolone) was 0.828 and the self-aminoacylation (biotinyl-Trp-oxazolone) was 0.994.
In the case of “AAGGUUGGUAAUAGUCGCAAG [Fam3.1 aminoacylation ribozyme variant]”, the self-aminoacylation (biotinyl-Phe-oxazolone) is reported as 2.09, the self-aminoacylation (biotinyl-Ile-oxazolone) is reported as 1.48 and the self-aminoacylation (biotinyl-Met-oxazolone) is reported as 1.59. The self-aminoacylation (biotinyl-Val-oxazolone) was 1.38, the self-aminoacylation (biotinyl-Leu-oxazolone) was 1.55 and the self-aminoacylation (biotinyl-Trp-oxazolone) was 2.15.
“AAGUAUGAUAAUAGUCGCAAG [Fam3.1 aminoacylation ribozyme variant]” was tested, and the self-aminoacylation (biotinyl-Phe-oxazolone) was 1.35, the self-aminoacylation (biotinyl-Ile-oxazolone) was 1.22 and the self-aminoacylation (biotinyl-Met-oxazolone) was 1.13. The self-aminoacylation (biotinyl-Val-oxazolone) was 1.28, the self-aminoacylation (biotinyl-Leu-oxazolone) was 1.1 and the self-aminoacylation (biotinyl-Trp-oxazolone) was 1.2.
For “AAGUAUGCUAAUAAUCGCAAG [Fam3.1 aminoacylation ribozyme variant]”, the self-aminoacylation (biotinyl-Phe-oxazolone) was 2, the self-aminoacylation (biotinyl-Ile-oxazolone) was 1.45 and the self-aminoacylation (biotinyl-Met-oxazolone) was 1.28. For the same sequence, the self-aminoacylation (biotinyl-Val-oxazolone) was 1.05, the self-aminoacylation (biotinyl-Leu-oxazolone) was 1.14 and the self-aminoacylation (biotinyl-Trp-oxazolone) was 1.39.
“AAGUAUGCUAAUAGUCGAAAG [Fam3.1 aminoacylation ribozyme variant]” was tested, and the self-aminoacylation (biotinyl-Phe-oxazolone) was 15.7, the self-aminoacylation (biotinyl-Ile-oxazolone) was 1.48 and the self-aminoacylation (biotinyl-Met-oxazolone) was 1.7. For the same sequence, the self-aminoacylation (biotinyl-Val-oxazolone) was 1.21, the self-aminoacylation (biotinyl-Leu-oxazolone) was 1.31 and the self-aminoacylation (biotinyl-Trp-oxazolone) was 4.62.
“AAGUAUGCUAAUAGUCGCAAU [Fam3.1 aminoacylation ribozyme variant]” showed a self-aminoacylation (biotinyl-Phe-oxazolone) of 1.96, a self-aminoacylation (biotinyl-Ile-oxazolone) of 1.9 and a self-aminoacylation (biotinyl-Met-oxazolone) of 2.13. For the same sequence, the self-aminoacylation (biotinyl-Val-oxazolone) was 1.52, the self-aminoacylation (biotinyl-Leu-oxazolone) was 1.64 and the self-aminoacylation (biotinyl-Trp-oxazolone) was 1.75.
“AAGUAUGCUAAUAGUCGCAUG [Fam3.1 aminoacylation ribozyme variant]” was tested, and the self-aminoacylation (biotinyl-Phe-oxazolone) was 1.66, the self-aminoacylation (biotinyl-Ile-oxazolone) was 1.34 and the self-aminoacylation (biotinyl-Met-oxazolone) was 1.45. For the same sequence, the self-aminoacylation (biotinyl-Val-oxazolone) was 1.09, the self-aminoacylation (biotinyl-Leu-oxazolone) was 1.55 and the self-aminoacylation (biotinyl-Trp-oxazolone) was 1.84.
In the case of “AAGUAUGCUAAUCGUCGCAAG [Fam3.1 aminoacylation ribozyme variant]”, the self-aminoacylation (biotinyl-Phe-oxazolone) is reported as 2.35, the self-aminoacylation (biotinyl-Ile-oxazolone) is reported as 1.81 and the self-aminoacylation (biotinyl-Met-oxazolone) is reported as 1.71. For the same sequence, the self-aminoacylation (biotinyl-Val-oxazolone) was 1.56, the self-aminoacylation (biotinyl-Leu-oxazolone) was 1.37 and the self-aminoacylation (biotinyl-Trp-oxazolone) was 1.76.
Sequence “AAGUAUGCUCAUAGUCGCAAG [Fam3.1 aminoacylation ribozyme variant]” has a self-aminoacylation (biotinyl-Phe-oxazolone) of 4.07, a self-aminoacylation (biotinyl-Ile-oxazolone) of 1.83 and a self-aminoacylation (biotinyl-Met-oxazolone) of 1.5. It also gave a self-aminoacylation (biotinyl-Val-oxazolone) of 1.3, a self-aminoacylation (biotinyl-Leu-oxazolone) of 1.3 and a self-aminoacylation (biotinyl-Trp-oxazolone) of 2.78.
With “AAGUAUGCUGAUAGUCGCAAG [Fam3.1 aminoacylation ribozyme variant]” the self-aminoacylation (biotinyl-Phe-oxazolone) was 1.92, the self-aminoacylation (biotinyl-Ile-oxazolone) was 1.84 and the self-aminoacylation (biotinyl-Met-oxazolone) was 1.94. The self-aminoacylation (biotinyl-Val-oxazolone) was 1.65, the self-aminoacylation (biotinyl-Leu-oxazolone) was 1.91 and the self-aminoacylation (biotinyl-Trp-oxazolone) was 1.96.
For “AAGUCUGCAAAUAGUCGCAAG [Fam3.1 aminoacylation ribozyme variant]”, the self-aminoacylation (biotinyl-Phe-oxazolone) was 1.15, the self-aminoacylation (biotinyl-Ile-oxazolone) was 0.902 and the self-aminoacylation (biotinyl-Met-oxazolone) was 0.888. The self-aminoacylation (biotinyl-Val-oxazolone) was 0.671, the self-aminoacylation (biotinyl-Leu-oxazolone) was 0.891 and the self-aminoacylation (biotinyl-Trp-oxazolone) was 1.22.
